Article PMC6751169, “Modular enzyme assembly for enhanced cascade biocatalysis and metabolic flux” (Nature Communications, 2019)

Biological target: the molecule itself
Test: not stated; oligomeric state of the untagged enzymes; the sentence points to Supplementary Figs. 1 and 2

B1: MenD (2-succinyl-5-enolpyruvyl-6-hydroxy-3-cyclohexadiene-1-carboxylate synthase), untagged (enzyme, E. coli, UniProt P17109 1-556, looked up)
chain: MSVSAFNRRWAAVILEALTRHGVRHICIAPGSRSTPLTLAAAENSAFIHHTHFDERGLGHLALGLAKVSKQPVAVIVTSGTAVANLYPALIEAGLTGEKLILLTADRPPELIDCGANQAIRQPGMFASHPTHSISLPRPTQDIPARWLVSTIDHALGTLHAGGVHINCPFAEPLYGEMDDTGLSWQQRLGDWWQDDKPWLREAPRLESEKQRDWFFWRQKRGVVVAGRMSAEEGKKVALWAQTLGWPLIGDVLSQTGQPLPCADLWLGNAKATSELQQAQIVVQLGSSLTGKRLLQWQASCEPEEYWIVDDIEGRLDPAHHRGRRLIANIADWLELHPAEKRQPWCVEIPRLAEQAMQAVIARRDAFGEAQLAHRICDYLPEQGQLFVGNSLVVRLIDALSQLPAGYPVYSNRGASGIDGLLSTAAGVQRASGKPTLAIVGDLSALYDLNALALLRQVSAPLVLIVVNNNGGQIFSLLPTPQSERERFYLMPQNVHFEHAAAMFELKYHRPQNWQELETAFADAWRTPTTTVIEMVVNDTDGAQTLQQLLAQVSHL
notes: MenD, 2-succinyl-5-enolpyruvyl-6-hydroxy-3-cyclohexadiene-1-carboxylate synthase, E. coli; subunit 63 kDa; 'Untagged' means without RIAD or RIDD; also called untagged MenD; non-tagged enzyme
stoichiometry N: 4
